Laboratory results: patent US8940299B2, “Method of treating cancer” (Case Western Reserve University, priority 2008, dated 2015)

B1: C5a: Murine C5a complement anaphylatoxin from Cell Sciences (protein)
chain: NLHLLRQKIEEQAAKYKHSVPKKCCYDGARVNFYETCEERVARVTIGPLCIRAFNECCTIANKIRKESPHKPVQLGR

Columns and labels:
[1] = tested on: Complement, IL-2, and IFNγ mRNAs; assay: qPCR of complement, IL-2 and IFNγ mRNAs in T cells with PI-103; format: cell-based, mouse
Protocol: To test whether this signaling pathway is operational in T cells, we incubated WT T cells with anti-CD3+anti-CD28 plus a specific inhibitor (PI-103) of PI-3Kγ.
We synthesized cDNAs by incubating 20 μl of mRNAs in Sprint PowerScript Single Shots (Clontech, Mountain View, Calif.). A total of 10 μl of diluted cDNA were mixed with 2 μl of primer and 10 μl SYBR green master mix (Applied Biosystems, Foster City, Calif.) and assayed in triplicate on an ABI prism 7000 cycler. In all assays, fold increases are relative to each basal level and standardized to Actin.

phospho-Ser473 AKT = assay: AKT phosphorylation in WT T cells stimulated with anti-CD3+anti-CD28 (immunoblot, Luminex); format: cell-based, mouse; settings: 0.1 μM PI-103, 20 min
Protocol: FIG. 5 illustrates immunoblots of A) anti-phospho-Ser473 AKT (rep of 5 exps) of WT T cells incubated with anti-CD3+anti-CD28±C5aR-A+C3aR-A (10 ng/ml each). B) anti-phospho-Ser473 AKT (rep of 5 exps) of WT or C5ar1−/−C3ar1−/− T cells incubated with anti-CD3+anti-CD28.
FIG. 6 illustrates C5aR and C3aR Ligation Activates PI3-Kγ, which in turn promotes AKT Phosphorylation. […] (p<0.05). […] (B) WT T cells were incubated at 37° C. with anti-CD3+anti-CD28 (1 μg/ml each) for 3 min after which the cells were incubated for 20 min with buffer or 0.1 μM PI-3Kγ-specific inhibitor PI-103. Extracts were immunoblotted with anti-phospho-Ser^473 AKT or total AKT mAb (representative of five experiments). (C) OT-II T cells were incubated with 0.1 μM OVA323-339, WT DCs, and 0.1 μM PI-103±10 ng/ml C5a. Complement, IL-2, and IFNγ mRNAs were quantitated by qPCR. All error bars are ±SD.
To test whether abrogated CD28 costimulation in the absence or blockade of C5aR+C3aR relates to a requirement for these GCPR signals for optimal AKT phosphorylation, we stimulated WT T cells with anti-CD3+anti-CD28±C5aR-A and C3aR-A and assessed AKT phosphorylation by immunoblotting (FIG. 5A) and Luminex assay (FIG. 6A).
Cells were stimulated for 1 hr with 1 μg/ml anti-CD3 and/or anti-CD28 (BD Biosciences) in serum-free RPMI 1640 for qPCR analyses and for 72 hr for IFNγ ELISPOT assays. […]

EGF receptor (EGFR) = assay: EGFR phosphorylation in the 3 tumor lines (immunoprecipitation, anti-phosphotyrosine immunoblot); format: cell-based, murine
Description: (§1) Unregulated EGFR signaling has causally linked with certain cancers. Additionally, an earlier study in the literature reported that added C5a can induce EGFR phosphorylation in HeLa cells. Based on these two findings, we next asked whether EGFR phosphorylation in cancers cells is in fact dependent on C3aR/C5aR signal transduction. To do this, we cultured each of the 3 tumor lines in the presence of buffer alone, C5aR-A/C3aR-A and anti-C3a/anti-C5a mAb, or vehicle and nonrelevant mAb controls. After 2 hr, we added increasing amounts of EGF, 2 min after which we extracted the cells with NP-40 lysis buffer. We then immuoprecipitated EGFR from lysates with specific antibody and probed immunoblots of the precipitates with anti-phosphtyrosine mAb. […] To determine this C3aR/C5aR dependent step is an intermediary for EGFR phosphorylation, we repeated the above study this time using PI-103, a specific inhibitor of this enzyme. […] In a converse study, we incubated each of the 3 tumor lines without and with added C5a and measured cell growth.

PI-3Kγ = PI-3Kγ enzyme activity in immunoprecipitates of tumor lines with added C5a; format: cell-based, murine; settings: PI-3Kγ immunoprecipitates
Description: as §1

3 tumor lines = assay: Cell growth of the 3 tumor lines without and with added C5a; format: cell-based, murine; settings: all 3 tumor lines
Description: as §1

B16/F10 (melanoma cell) = assay: Cell growth after mouse C5a treatment in Opti-MEM; format: cell-based, murine; settings: 100 nM C5a, 72 hr culture
Protocol: (§2) FIG. 2 illustrates graphs showing cell growth in 3 cancer cell lines (a) MCA 205 (fibrosarcoma), (b) B16 (melanoma cell), and (c) E0771 (breast cancer) after mouse C5a treatment in Opti-MEM media (serum-reduced media).
(§3) (a) MCA 205, (b) B16/F10 and (c) E0771. Data are representative of two experiments with duplicates. MCA 205 and E0771 were treated with 500 nM C5a and B16/F10 was treated with 100 nM C5a respectively.
(§4) Three kinds of cancer cell lines (B 16/F10, MCA 205 and E0771) were used for this experiment. Each cell line was cultured in 12-well plates (3×10^4/well) in serum reduced Opti-MEM media (Invitrogen) containing L-glutamine and penicillin+streptomycin for the indicated times (24 hr, 48 hr and 72 hr). C5a (Cell Sciences) in PBS was added in each well at 0, 24 and 48 hr time point to a final concentration 100 nM for B16/F10 and 500 nM for MCA205 and E0771 based on the preliminary experiment. At each time point (24 hr, 48 hr and 72 hr), live cells were trypsinized and counted using trypan blue (Invitrogen, Carlsbad, Calif.). Experiment was repeated two times with duplicates.

MCA 205 (fibrosarcoma) = assay: Cell growth after mouse C5a treatment in Opti-MEM; format: cell-based, murine; settings: 500 nM C5a, 72 hr culture
Protocol: as §2, §3, §4

E0771 (breast cancer) = assay: Cell growth after mouse C5a treatment in Opti-MEM; format: cell-based, murine; settings: 500 nM C5a, 72 hr culture
Protocol: as §2, §3, §4

T cells = assay: In vitro T cell viability in serum-free HL-1 medium; format: cell-based, mouse; settings: 300 ng/ml C5a added at time 0 and 90 min, both knockouts
Protocol: FIG. 7 illustrates constitutive C5a and C3a Production and Signaling via the C5aR and C3aR GPCRs Influences Cell Viability In Vitro and In Vivo. […] (B) WT and C5ar1^−/−, C3ar1^−/−, and C5ar1^−/− C3ar1^−/− T cells were incubated for 6 hr in serum-free HL-1 medium and viability assayed. (C) WT T cells were incubated at 37° C. for 6 hr in HL-1 medium±anti-C3a, anti-C5a, or anti-C3a+anti-C5a and viability assessed. (D) C3^−/− and C5-deficient T cells were incubated for 6 hr in HL-1 medium±300 ng/ml C5a added at time 0 and 90 min (E) Spleens from naive WT, C3ar1^−/−, C5ar1^−/−, and C3ar1^−/− C5ar1^−/− mice were isolated (three to five animals per group), total cell numbers were counted, and the CD3^+ fraction was determined by flow cytometry (WT=10%, C5ar1^−/−=5.4%, C3ar1^−/−=6.3, and C5ar1^−/− C3ar1^−/−=4.1%). (F) Immediately after isolation and labeling, 10^6 CFSE-labeled WT T cells and CellTracker Red CMTPX-labeled C5ar1^−/− C3ar1^−/− T cells were adoptively cotransferred into the same SCID mice (n=4 mice per group for each time point). […]
To test this possibility, we compared the survival of WT and C5ar1^−/− C3ar1^−/− T cells in vitro […]. […] Fewer surviving C5ar1^−/− C3ar1^−/− T cells were detected at 6 hr, confirming that disrupted autocrine signaling through both the C5aR and C3aR contributed to the decline (FIG. 7B). […]

| Molecule | upregulation of IL-2 and IFNγ mRNA expression ([1]; 0.1 μM PI-103) | upregulation of complement gene expression ([1]; 0.1 μM PI-103) | anti-CD3+anti-CD28-induced phosphorylation of AKT (phospho-Ser473 AKT) | EGF induced EGFR phosphorylation (EGF receptor (EGFR); 3 tumor lines, 2 hr pre-treatment, increasing amounts of EGF for 2 min) | PI-3Kγ enzyme activity (PI-3Kγ) | overcoming of the suppressive effects of PI-103 by added C5a ([1]; 0.1 μM PI-103 + 10 ng/ml C5a) | tumor cell numbers (3 tumor lines) | cell survival in comparison with control (B16/F10 (melanoma cell)) | cell survival in comparison with control (MCA 205 (fibrosarcoma)) | cell survival in comparison with control (E0771 (breast cancer)) | augmentation of 6 hr viability of C5-deficient or C3−/− T cells (T cells) | EGFR phosphorylation (EGF receptor (EGFR); anti-EGFR immunoprecipitates, added C5a) |
| --- | --- | --- | --- | --- | --- | --- | --- | --- | --- | --- | --- | --- |
| Oc1cccc(-c2nc(N3CCOCC3)c3oc4ncccc4c3n2)c1 [PI-103] | eliminated | prevented | abrogated | inhibited EGFR phosphorylation in an identical fashion |  |  |  |  |  |  |  |  |
| B1 |  |  |  |  | augmented PI-3Kγ enzyme activity | could not be overcome | increased tumor cell numbers | enhances cell survival | enhances cell survival | enhances cell survival | ~25% | augmented EGFR phosphorylation |
